In the supplement of paper PMC7877785:
± gives the uncertainty stated by the source.

Test: self-splicing fitness, log relative to wild type (ln ratio); higher = more splicing; Tetrahymena group I intron in knt gene, E. coli kanamycin selection, DiMSum; sequences stand for … in CUCUCU…GGAGGGAAAAGUUAUCAGGCAUGCACCUGGUAGCUAGUCUUUAAACCAAUAGAUUGCAUCGGUUUAAAAGGCAAGACCGUCAAAUUGCGGGAAAGGGGUCAACAGCCGUUCAGUACCAAGUCUCAGGGGAAACUUUGAGAUGGCCUUGCAAAGGGUAUGGUAAUAAGCUGACGGACAUGGUCCUAACCACGCAGCCAAGUCCUAAGUCAACAGAUCUUCUGUUGAUAUGGAUGCAGUUCACAGACUAAAUGUCGGUCGGGGAAGAUGUAUUCUUCUCAUAAGAUAUAGUCGGACCUCUCCUUAAUGGGAGCUAGCGGAUGAAGUGAUGCAACACUGGAGCCGCUGGGAACUAAUUUGUAUGCGAAAGUAUAUUGAUUAGUUUUGGAGUACUCGUGGUCG
Method in brief: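 Library with all eight P1ex-region intron nucleotides randomised, intron inside the knt kanamycin-resistance gene on pET-22b(+), in E. coli BL21(DE3). Cells grew overnight at 37°C or 30°C on LB agar with or without 25 μg/mL kanamycin (plus 100 μg/mL carbenicillin, 50 μM IPTG, 0.2% rhamnose), in six replicate transformations. Pooled colonies were amplicon-sequenced on Illumina HiSeq 2500. DiMSum fitness is the error-weighted combination of wild-type-normalised replicate fold changes, kanamycin versus none.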

Row | Sequence | self-splicing fitness (ln) (30 °C) | self-splicing fitness (ln) (37 °C)
1 | UGUCAGCAAUAUUACGGCGU | -1.95 ± 0.15 | -0.728 ± 0.13
2 | UGUCAGCAAUAUUACGGCUC | -2.5 ± 0.15 | -0.587 ± 0.16
3 | UGUCAGCAAUAUUACGGGAU | -3.26 ± 0.15 | -3.32 ± 0.19
4 | UGUCAGCAAUAUUACGGGGC | -2.84 ± 0.16 | -3.02 ± 0.26
5 | UGUCAGCAAUAUUACGGUGU | -2.06 ± 0.084 | -1.13 ± 0.1
6 | UGUCAGCAAUAUUACGGUUC | -3.07 ± 0.2 | -1.63 ± 0.24
7 | UGUCAGCAAUAUUACGUAGG | -0.865 ± 0.079 | -0.275 ± 0.1
8 | UGUCAGCAAUAUUACGUAGU | -2.85 ± 0.15 | -0.865 ± 0.11
9 | UGUCAGCAAUAUUACGUCUG | -0.693 ± 0.1 | -0.104 ± 0.11
10 | UGUCAGCAAUAUUACGUGCG | -0.00445 ± 0.076 | 0.159 ± 0.092
11 | UGUCAGCAAUAUUACGUUGA | -3.77 ± 0.23 | -2.47 ± 0.19
12 | UGUCAGCAAUAUUACGUUGG | -4.09 ± 0.3 | -2.22 ± 0.25
13 | UGUGAGCAAUAUUACGAGCU | -2.7 ± 0.26 | -2.14 ± 0.41
14 | UGUGAGCAAUAUUACGCACG | -1.47 ± 0.21 | -1.8 ± 0.21
15 | UGUGAGCAAUAUUACGCAUG | -1.91 ± 0.15 | -1.96 ± 0.22
16 | UGUGAGCAAUAUUACGCCAG | -2.23 ± 0.32 | -2.01 ± 0.34
17 | UGUGAGCAAUAUUACGCCUC | -1.83 ± 0.41 | –
18 | UGUGAGCAAUAUUACGCUAA | -2.39 ± 0.17 | -2.04 ± 0.23
19 | UGUGAGCAAUAUUACGGAAU | -3.76 ± 0.32 | -2.04 ± 0.23
20 | UGUGAGCAAUAUUACGUGAA | – | -1.69 ± 0.23
21 | UGUGAGCAAUAUUACGUGCC | -2.51 ± 0.3 | –
22 | UGUGAGCAAUAUUACGUGCU | -3.34 ± 0.29 | -3.41 ± 0.33
23 | UGUGAGCAAUAUUACGUGUA | -1.49 ± 0.29 | -1.46 ± 0.28
24 | UGUGAGCAAUAUUACGUUAA | -2.97 ± 0.31 | -2.44 ± 0.37
25 | UGUGAGCAAUAUUACGUUGC | – | -1.57 ± 0.37

Row | Sequence | self-splicing fitness (ln) (30 °C) | self-splicing fitness (ln) (37 °C)
26 | UGUUAGCAAUAUUACGAACA | -1.08 ± 0.2 | -1.15 ± 0.32
27 | UGUUAGCAAUAUUACGAAGU | -3.08 ± 0.13 | -2.76 ± 0.19
28 | UGUUAGCAAUAUUACGAAUC | -2.97 ± 0.48 | –
29 | UGUUAGCAAUAUUACGACCU | -0.58 ± 0.16 | 0.317 ± 0.2
30 | UGUUAGCAAUAUUACGAGGA | – | -1.92 ± 0.21
31 | UGUUAGCAAUAUUACGAGUA | -1.32 ± 0.13 | -0.347 ± 0.13
32 | UGUUAGCAAUAUUACGAUAA | -0.767 ± 0.17 | -0.345 ± 0.16
33 | UGUUAGCAAUAUUACGAUCU | -0.736 ± 0.088 | -0.148 ± 0.12
34 | UGUUAGCAAUAUUACGCCGA | -1.18 ± 0.17 | -1.21 ± 0.15
35 | UGUUAGCAAUAUUACGCUCG | -0.015 ± 0.18 | -0.0235 ± 0.21
36 | UGUUAGCAAUAUUACGGAUC | -2.29 ± 0.35 | -1.81 ± 0.27
37 | UGUUAGCAAUAUUACGGCGU | -0.742 ± 0.1 | -0.892 ± 0.14
38 | UGUUAGCAAUAUUACGGUCG | -0.217 ± 0.15 | 0.99 ± 0.18
39 | UGUUAGCAAUAUUACGGUUC | -1.02 ± 0.24 | -1.25 ± 0.48
40 | UGUUAGCAAUAUUACGUACA | -0.999 ± 0.11 | 0.16 ± 0.13
41 | UGUUAGCAAUAUUACGUAGA | -2.29 ± 0.12 | -0.809 ± 0.14
42 | UGUUAGCAAUAUUACGUAGU | -3.48 ± 0.33 | -2.22 ± 0.27
43 | UGUUAGCAAUAUUACGUCAU | -2.42 ± 0.3 | -1.35 ± 0.24
44 | UGUUAGCAAUAUUACGUUAU | -2.78 ± 0.16 | -2.67 ± 0.19
45 | UGUUAGCAAUAUUACGUUCU | -1.29 ± 0.14 | -0.157 ± 0.16
46 | UUAAAGCAAUAUUACGAAAA | -0.945 ± 0.057 | -0.761 ± 0.08
47 | UUAAAGCAAUAUUACGAACA | -0.0579 ± 0.13 | 0.708 ± 0.18
48 | UUAAAGCAAUAUUACGAACG | 0.275 ± 0.12 | 0.794 ± 0.16
49 | UUAAAGCAAUAUUACGAACU | -0.567 ± 0.11 | -0.0402 ± 0.12
